Results reported in PMC9898101.

Test system: MBP-ERS WT (human)
Test: EMSA
Details: 1 mM Mg2+; 5 ug/mL heparin (unit prefix not given); none (in vitro transcript); 25 mM Tris-HCl pH 7.5, 50 mM NaCl, 1 mM MgCl2, 1 mM DTT, 5 ug/mL heparin (prefix not given), 10 nM 32P-tRNA, room temperature 30 min; native 4-16% gel on …

human tRNAGlu(TTC)
Kd: 516 nM
